Laboratory results from patent US20200247886A1 (ZLIP, published 2020).
Changes are numbered by the printed parent chain. Like-named read-outs stand apart in the source and are kept apart here.

Legend:
[1] = target: T1, human CD47 expressed on cells (CD47 expressing CHO cells, Jurkat, HL60, DLD1, Raji) (human, UniProt Q08722 19-292); assay: flow cytometry on DLD1 cells, IgG, frequency
T1 construct: also called CHO-CD47; IAP

[2] = target: T1, human CD47 expressed on cells (CD47 …); assay: IC50 (nM) MFI as grade, blocking biotinylated SIRPa-Fc binding to DLD1 cells; legend +: >20 nM
[3] = target: T1, human CD47 expressed on cells (CD47 …); assay: IC50 (nM) Frequency as grade, blocking biotinylated SIRPa-Fc binding to DLD1 cells; legend +++: <1 nM
[4] = target: T1, human CD47 expressed on cells (CD47 …); assay: EC50 (nM) as grade, flow cytometry, Fab on HL60 cells; legend +++: <1 nM
[5] = target: T1, human CD47 expressed on cells (CD47 …); assay: EC50 (nM) as grade, flow cytometry, Fab on DLD1 cells; legend ++: >5 nM and <60 nM
[6] = target: T2, biotin labelled polyhistidine tagged CD47 protein (Novoprotein, Cat#321) (human, UniProt Q08722 19-139, biotin labelled (site not stated)); assay: IC50 (nM) as grade, Fab blocking biotinylated CD47 binding to SIRPα-CHO cells; legend +: >65 nM
T2 construct: Bought protein; also called biotinylated CD47; biotinylated human CD47 protein; not shown: polyhistidine tag

[7] = target: T1, human CD47 expressed on cells (CD47 …); assay: EC50 (nM) as grade, flow cytometry, Fab on DLD1 cells; legend +: >60 nM
[8] = target: T2, biotin labelled polyhistidine tagged …; assay: IC50 (nM) as grade, Fab blocking biotinylated CD47 binding to SIRPα-CHO cells; legend ++: >10 nM and <65 nM
His-tagged CD47 [9] = target: T3, His-tagged CD47 (Homo sapiens (Human), UniProt Q08722 19-139, limits assumed); assay: IC50 (nM) MFI as grade, blocking His-tagged CD47 binding to SIRPα-CHO cells; legend +++: <2 nM
T3 construct: not shown: His tag

His-tagged CD47 [10] = target: T3, His-tagged CD47; assay: IC50 (nM) Frequency as grade, blocking His-tagged CD47 binding to SIRPα-CHO cells; legend +: >2.7 nM
His-tagged CD47 [11] = target: T3, His-tagged CD47; assay: flow cytometry blocking assay: His-tagged CD47 with Fab on SIRPα-expressing CHO cells (SIRPα is the blocked ligand), anti-His-APC, MFI
His-tagged CD47 [12] = target: T3, His-tagged CD47; assay: flow cytometry blocking assay: His-tagged CD47 with Fab on SIRPα-expressing CHO cells (SIRPα is the blocked ligand), anti-His-APC, frequency
[13] = target: T1, human CD47 expressed on cells (CD47 …); assay: EC50 (nM) as grade, flow cytometry, Fab on DLD1 cells; legend +++: <5 nM
[14] = target: T1, human CD47 expressed on cells (CD47 …); assay: flow cytometry on human platelets, MFI
[15] = target: T1, human CD47 expressed on cells (CD47 …); assay: flow cytometry on human red blood cells, MFI
CD47 on monkey RBC = target: T4, CD47 on monkey RBC (Macaca fascicularis, UniProt A0A2K5X523); assay: flow cytometry on cynomolgus monkey red blood cells expressing CD47, MFI
T4 construct: native, on red blood cells; also called cynomolgus monkey red blood cells expressing CD47

[16] = target: T1, human CD47 expressed on cells (CD47 …); assay: flow cytometry blocking assay on Raji cells, SIRPα is the blocked ligand, MFI
[17] = target: T1, human CD47 expressed on cells (CD47 …); assay: flow cytometry on human platelets, donor 1, MFI
[18] = target: T1, human CD47 expressed on cells (CD47 …); assay: flow cytometry on human platelets, donor 2, MFI
[19] = target: T1, human CD47 expressed on cells (CD47 …); assay: flow cytometry on human red blood cells, donor 1, MFI
[20] = target: T1, human CD47 expressed on cells (CD47 …); assay: flow cytometry on human red blood cells, donor 2, MFI
[21] = target: T1, human CD47 expressed on cells (CD47 …); assay: flow cytometry blocking assay on Raji cells, SIRPα is the blocked ligand, MFI; remark: listed apart in the source
[22] = target: T1, human CD47 expressed on cells (CD47 …); assay: IC50 as grade, SIRPα blocking on Raji cells (second part of the table); legend ++: >1 nM and <20 nM

B1: ABU24 (IgG, chimeric version of the Fab) (antibody, V domains shown)
VH: EVQLQQPGTELVKPGASVKLSCKASGYTFTSYWMHWVKQRPGQGLEWIGNVVPNNDGTNYNEKFRNKATLTVDKSSSTAYMQLSSLTSEDSAVYYCAVTYFAYWGQGTLVTVSA
VL: DAVVTQESALTTSPGETVTLTCRSSTGAVSTSNYANWVQEKPDHLFTGLIGGTNNRAPGVPARFSGSLIGDKAALTITGAQTEDEAIYFCALWYSNHWVFGGGTKLTVL
For B1, the “EC50 (read off the curve)” value [1] was roughly 10 nM, the IC50 [2] was greater than 20 nM and the IC50 [3] was less than 1 nM.

B2: ABU24 (Fab) (Fab, V domains shown)
VH: B1 VH
VL: B1 VL
notes: Phage-derived Fab: murine VL and VH fused to human CL and CH1
For B2, the EC50 [4] was less than 1 nM, the EC50 [5] was 5 to 60 nM and the IC50 [6] was greater than 65 nM.

B3: ABU20 (Fab) (Fab, V domains shown)
VH: RGKVQESGPGLVKPSQSLSLTCSVTGYSITSGYYWNWIRQFPGNKLEWMGYINYDGSNNYNPSLKNRISITRDTSKNQFFLKLNSVTTEDTATYYCARGYYYGSSYGYWYFDVWGTGTTVTVSS
VL: B1 VL with S30T, S32N, W98L
notes: as for B2
B3 was tested, and the EC50 [7] was greater than 60 nM, the EC50 [4] was less than 1 nM and the IC50 [8] was 10 to 65 nM.

B4: ABU11 (Fab) (Fab, V domains shown)
VH: EVQLQQPGAELVRPGSSVKLSCKASGYSFTTYWMHWVKQRPGQGLEWIGNINPSSGDSHYNEKFKSKATLTVDKSSSTAYLQLNSLTSEDSAVYYCARDYYGAYWGHGTLVTVSA
VL: DIQMTQSPASLSASVGETVTITCRASENVYSYLAWYQQKQGKSPQLLVYKANTLAEGVPSRFSGSGSGTQFSLKINSLQPEDFGTYYCQHHYGTPLTFGSGTKLEIK
notes: as for B2
B4 was tested, and the EC50 [7] was greater than 60 nM, the EC50 [4] was less than 1 nM and the IC50 [8] was 10 to 65 nM.

B5: ABU40 (IgG, chimeric version of the Fab) (antibody, V domains shown)
VH: B4 VH with A9T, R13K, S16A, L81M
VL: B4 VL with V29I, K50N, N52K, T85S, S100A, I106L
With B5 the “EC50 (read off the curve)” value [1] was roughly 7 nM, the IC50 [2] was greater than 20 nM and the IC50 [3] was less than 1 nM.

B6: ABU8 (Fab) (Fab, V domains shown)
VH: EVQLQQSGTELVKPGASVKLSCKASGYTFISYWMHWVKQRPGQGLEWIGNINPSSGNTNYNEKFKTKATLTVDKSSSTAYMQLSSLTSEDSAVYYCVRDYYGNYWGQGTTVTVSS
VL: B4 VL with V29I, K50N, N52K, N76K, T85S, S100G, I106L
B6 gave an EC50 [4] of less than 1 nM, an EC50 [5] of 5 to 60 nM and an IC50 [8] of 10 to 65 nM.

B7: ABU40 (Fab) (Fab, V domains shown)
VH: B4 VH with A9T, R13K, S16A, L81M
VL: B4 VL with V29I, K50N, N52K, T85S, S100A, I106L
notes: as for B2
In the case of B7, the EC50 [4] is reported as less than 1 nM, the EC50 [5] is reported as 5 to 60 nM and the IC50 (His-tagged CD47 [9]) is reported as less than 2 nM. The IC50 (His-tagged CD47 [10]) was greater than 2.7 nM, the IC50 [8] was 10 to 65 nM and the “IC50 (read off the curve)” value (His-tagged CD47 [11]) was roughly 2 nM. For the same binder, the “IC50 (read off the curve)” value (His-tagged CD47 [12]) was roughly 3 nM.

B8: ABU16 (Fab) (Fab, V domains shown)
VH: RVQLQQSGAELVRPGTSVKVSCKASAYAFTNYLIEWVKKRPGQGLEWIGVINPGSGGTNYNEKFKGKATLTADKSSSTAYMQLSSLTSEDSAVYFCARGDGYGSLFAYWGQGTLVTVSA
VL: RHCFNQSPAIMSASPGEKVTMTCSASSSVSYMHWYQQKSGTSPKRWIYDTSNLASGVPVRFSGSGSGTSYSLTISRMEAEDAATYYCQQWSNYPFTFGSGTKLELK
notes: as for B2
B8 gave an EC50 [4] of less than 1 nM, an EC50 [13] of less than 5 nM and an IC50 [6] greater than 65 nM.

B9: H-ABU41-IgG4-P (antibody)
light chain: DVQITQSPSSLSASVGDRVTITCRASKNIGKYLAWFQQKPGKTNKLLIYSGSTLQSGIPSRFSGSGSGTDFTLTISSLQPEDFATYYCQQHNEYPYTFGGGTKVEIK
heavy chain: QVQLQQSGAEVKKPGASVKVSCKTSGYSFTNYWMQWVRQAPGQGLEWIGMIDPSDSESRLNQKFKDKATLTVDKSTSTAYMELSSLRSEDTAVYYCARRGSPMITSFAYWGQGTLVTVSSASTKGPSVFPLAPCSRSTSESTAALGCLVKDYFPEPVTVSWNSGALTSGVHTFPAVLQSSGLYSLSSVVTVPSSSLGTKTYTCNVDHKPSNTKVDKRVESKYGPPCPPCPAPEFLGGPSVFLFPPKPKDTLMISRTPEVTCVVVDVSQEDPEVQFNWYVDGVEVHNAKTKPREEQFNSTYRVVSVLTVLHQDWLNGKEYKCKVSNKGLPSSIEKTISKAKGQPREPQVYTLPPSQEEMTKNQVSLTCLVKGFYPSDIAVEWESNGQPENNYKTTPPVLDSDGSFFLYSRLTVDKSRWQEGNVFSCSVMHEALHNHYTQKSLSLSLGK
B9 was tested, and the “EC50 (read off the curve)” value [14] was roughly 2 nM, the “EC50 (read off the curve)” value [15] was roughly 4 nM and the “EC50 (read off the curve)” value (CD47 on monkey RBC) was roughly 0.1 µg/mL. The “IC50 (read off the curve)” value [16] was roughly 5 nM.

B10: H-ABU41-IgG4-PE (antibody)
light chain: B9 light chain
heavy chain: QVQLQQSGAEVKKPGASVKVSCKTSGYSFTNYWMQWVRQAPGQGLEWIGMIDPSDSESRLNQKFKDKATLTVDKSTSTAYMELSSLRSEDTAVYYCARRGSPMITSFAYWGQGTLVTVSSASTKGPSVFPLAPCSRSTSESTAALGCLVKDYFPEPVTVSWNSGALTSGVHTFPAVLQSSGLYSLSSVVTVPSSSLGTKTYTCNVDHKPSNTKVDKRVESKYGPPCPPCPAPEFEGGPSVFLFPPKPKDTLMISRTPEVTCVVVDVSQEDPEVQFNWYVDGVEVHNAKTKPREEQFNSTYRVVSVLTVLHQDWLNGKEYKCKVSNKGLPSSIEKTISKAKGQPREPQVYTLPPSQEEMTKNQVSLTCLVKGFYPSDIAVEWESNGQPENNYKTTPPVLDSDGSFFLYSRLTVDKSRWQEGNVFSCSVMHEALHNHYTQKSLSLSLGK
For B10, the “EC50 (read off the curve)” value [14] was roughly 2 nM, the “EC50 (read off the curve)” value [15] was roughly 4 nM and the “EC50 (read off the curve)” value (CD47 on monkey RBC) was roughly 0.1 µg/mL. For the same binder, the “IC50 (read off the curve)” value [16] was roughly 3 nM.

B11: H-ABU 10 (antibody, V domains shown)
VL: DIVMTQSPDSLAVSLGERATINCKSSQSLVSSSQKNYLAWYQQKPGQPPKLLIYWASVRDSGVPDRFSGSGSGTDFTLTISSLQAEDVAVYYCQQYYSYPLTFGQGTKVEIK
VH: QVQLVQSGAEVKKPGASVKVSCKASGYTFTDNYINWVRQAPGQRLEWMGWIYLGSGNTKYNEKFKGRVTITRDTSASTAYMELSSLRSEDTAVYYCARREERGFAPWGQGTLVTVSS
B11 was tested, and the “EC50 (read off the curve)” value [17] was roughly 0.6 nM, the “EC50 (read off the curve)” value [18] was roughly 0.6 nM and the “EC50 (read off the curve)” value [19] was roughly 3 nM. The “EC50 (read off the curve)” value [20] was roughly 3 nM, the “IC50 (read off the curve)” value [21] was roughly 1 nM and the IC50 [22] was 1 to 20 nM.

B12: H-ABU 9 (antibody, V domains shown)
VH: B11 VH with N32L, P106Y
VL: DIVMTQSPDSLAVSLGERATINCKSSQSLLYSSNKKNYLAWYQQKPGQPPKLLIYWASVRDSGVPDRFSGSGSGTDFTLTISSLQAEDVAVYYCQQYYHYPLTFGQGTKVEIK
For B12, the “EC50 (read off the curve)” value [17] was roughly 1 nM, the “IC50 (read off the curve)” value [21] was roughly 8 nM and the IC50 [22] was 1 to 20 nM.
